The nature of this data set: label from the status in PepcDB records.
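Also: failed if final PepcDB status was selected cloned or expressed and not failed if soluble or beyond.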

For the sequence “MGIHKPKFYAVRAGRDKGVFSSWEECRKAIYGFSGAVYRSFPTLEEAQAWFKGETLSDPLKAEDDSLRDDRTEYDVYTDGSYVNGQYAWAYAFVKDGKVHYEDADVGKNPAAATMRNVAGEIAAALYAVKKASQLGVKIRILHDYAGIAFWATGEWKAKNEFTQAYAKLMNQYRGIYSFEKVKAHSGNEFNDYVDMKAKSALGIRDLEHHHHHH”, the protein production entry was “failed”.

As to “MGIHLFWDSRVPVGLSRPVSEELSAVLEMPVSRIDDGIFPLEGFDPVRNQYDAVKVLLKLDMFRRRMPQIFKPADMDLEFYNKFNHLHEKILLVTPGDLYEPLADFVFGLAYPKLGVAIVSPHRLQNEFYGKYADDSALIDRIVKEGAHEIGHLFGLGHCDNPGCIMYCPRNLDELDRKRKYFCGKCRVQLNGDTLEDDLFSLEHHHHHH”, the protein production result is on record as “not failed”. Next, “MGIIAWIVFGFVIGLIARAVVPGKQSLGFVMTTLLGIAGSLIGGLVASAFAGTSGTTFQTAGFIGSLVGAIVLLVIAGMVTTPRRRTV”: “failed”; “MGIMPRKVLAIKNFKERFDLLPKLKGVIAEKQPDILVVVGNILKNEALEKEYERAHLARREPNRKVIHENEHYIIETLDKFFREIGELGVKTFVVPGKNDAPLKIFLRAAYEAETAYPNIRVLHEGFAGWRGEFEVIGFGGLLTEHEFEEDFVLKYPRWYVEYILKFVNELKPRRLVTIFYTPPIGEFVDRTPEDPKHHGSAVVNTIIKSLNPEVAIVGHVGKGHELVGNTIVVNPGEFEEGRYAFLDLTQHKIKLEQFS”: “not failed”. Next, “MGIRHIALFRWNDTVTPDQVEQVITALSKLPAAIPELKNYAFGADLGLAAGNYDFAVVADLDGEDGFRAYQDHPDHRAALAIIAPMLADRVAVQFAL”: “not failed”. Next, “MGIRVKRRQHQHLLESLVHSTAKQQGDFTKTAELATELLCQNLAVSLVSIWIFSADQGTQSLVAQFGSMALQDTYRPSLLHTVPRYLNELKNYRHIDAGNTLIDPRLTELVDSYFIPRQILSSLDVGIRINGHLEGVLCIERAQVTHHWHDSEIHLACQMADQLALTLATKHAYDKEERLSLFRCAIEQSRQMSMLEHHHHHH”: “not failed”; “MGKEITENIIDVEFKCNHFKMNGYIGNNNIYRSNKNLQHIYINKRFVKSKIIIDAITESYKSIIPIGKHAVCFLNIEVDPSCIDVNIHPNKLEIKFEKEQEVYIELRDFLKVKLIHSNLIGLEHHHHHH”: “failed”; “MGKENLYVVLPSYNEEANIGKLINEWNVQFKDLEARGIKLEIIIVNDGSTDNTLAVAEAFSKHNDNVVVIDHGVNKGLGEGLNTGINYVLSQKQKGYMCLMDGDMTHEPKYIFSMLDKLQEEKLDCVIASRYRRGAKVEGLSLFRKFLSFGARVLYTIRLGIPNVRDYTCGYRLYKTSVLEKLHKVYGKRIVKETGFACMMELIVKVSKENFKIGEVPFVLKYQLKGGESKMKVGKTIKRSLLLLRVYKLEHHHHHH”: “not failed”. For the sequence “MGKIFCIVQARMGSERLQGKVIKPILKKPMVIYTLDRLKKSKYIDKIVLATSSMERETPLVESCEEYGYDVFKGSEANVLKRYEQAAEKYGANIEDAVIRVTGDCPLIDPIIVDNVVTKFLSSDYDYVRLDVPNTFVRGFDVEIFSMKALKTVNSLINGGKIPKEEADMYKEHVTLYMYKHPNEFKVGYVKGDEFYSKDYRLCVDTKEDFELVKNIYEHFNDEFVSSKNVINYLDRNSEIAQINNDIKQKEVLEHHHHHH”, the protein production result is reported as “not failed”. Next, “MGKKNPNARHTDAATPLTTDDSNSSSVSRRESATESKSASESESSPPRSNTKQSRTHKNVKASGKATVSSSSDSDQAVANSSANDEEKEPVCKIRIVPLEKLLASPKTKERPSRGSQQKNVTINDSSDEEPLKGSKLVLPARKSRNKNAS”: “failed”; “MGKKYEIFLNENEHSLITPKVSFKEILRYYYLYPKNAIPSFKLPFFKPDLSGFSTPHITWLGHSSLFISFKEYKILIDPIFNTHASPISFINKAFKNAPVYNINDFNEIFAVIITHSHFDHLDAKSVKALKDKAKFFITPLKVGNYLKSYGVSEKKIIELDWWSGIEFGDLKIMATPAQHSSSRGDGKNKTLWASFVMEFLSVDKRVFFSADGGYFTHFKKIGEYFGSFDLACLESGQFNIAWPYSHSFPEQILKEAKDLNAKAVMPIHWGRFLAGTHAWNEVVKFLYENLDLPLITPKMGEAYEVGAKLEHHHHHH”: “not failed”; “MGKRFSSFQAAQIRIARPTGQLDEIIRFYEEGLCLKRIGEFSQHNGYDGVMFGLPHADYHLEFTQYEGGSTAPVPHPDSLLVFYVPNAVELAAITSKLKHMGYQEVESENPYWSNGGVTIEDPDGWRIVFMNSKGISGK”: “not failed”.

Take “MGKRSSNDLPPVEASMARHIIHFTGPINSSTCGNLITTCSRALQQGAELLQLNIATMGGECSYGFTLYNFLRALPVEVHTHNLGTVESMGNILFLAGERRTACSFSKFLFHPFHWTLHGSVDHSRMSEYAMSLDYDLRLYAQIVAERTKGAAEVLDVPRYLMAYPRILAPREALENGMIHEIDEMPIASDATQWSVHA”: the protein production entry is “failed”. With “MGKSDFLSPKAIANRIKSKGLQKLRWYCQMCQKQCRDENGFKCHCMSESHQRQLLLASENPQQFMDYFSEEFRNDFLELLRRRFGTKRVHNNIVYNEYISHREHIHMNATQWETLTDFTKWLGREGLCKVDETPKGWYIQYIDRDPETIRRQLELEKKKKQDLDDEEKTAKFIEEQVRRGLEGKEQETPVFTELS”, the protein production entry is listed as “not failed”. Next, “MGKTAIKSTAKVLSFVVQKHWATRLHYDFRLELEGTMKSWAVPKGPSFDPNDKRMAVHVEDHPISYNSFEGEIPSGQYGAGKVIIWDKGTWIPLEDPHKGYRDGKLKFELRGLKLKGHWALVRMRKEENKKQEPWLLIKEKDEYVRSSREYSVVDEMPDSVAELEHHHHHH”: “not failed”; “MGKTMITRALWSYAHRYRPQERWGILKPMQSGTAVEIGDGDYYCQTLPLEQTPREVCPLSFAAPLAPPIAAQLENRRIDLAPLWQTYQQLQERFDYLLVEGIGGLGSPITWEWTVADLAAAWKLPIVLVATVRLGAIAQIVANIALARQYQLVIRGLILNCVSPCSDAEIEQWTPPVFLSRFTQVPVLGVLPYGQHSNEQLAAMVAEWPLDLLWR”: “failed”. Consider “MGKVIGIDLGTTNSCASVLEGGKPIVITNTEGGRTTPSIVGFTKGSQRLVGQLAKRQSVTNAENTVYSIKRFIGRRWDDTVEERSRVPYNCVKGRDDTVSVSIRGQSYTPQEISAMILQKLKADSEAFLGEPVTQAVITVPAYFTDAQRQATKDAGTIAGLEVLRIINEPTAAALAYGLDKQETEELILVFDLGGGTFDVSLLQLGNGVFEVLSTSGNNHLGGDDFDNCVVQWMAESFKQKENIDLSTDKMAIQRLREAAEKAKIELSSMLNTTINLPFITADESGPKHLEMELARSQFEELTKQLLEDTRVPLTQALDDGEIRASDVHRVILVGGSTRIPAIQRVIQEFFPDSQLERSVNPDEAVALGAAIQAGVIGGEVEDVLLLDVTPLSLGLETLGEVTTKIIERNTTIPTSRSEVFSTAVDGQTSVEIHVIQGERAMARDNKSLGKFLLAGIPPAPRGMPQIEVSFEIDVNGILKVSAQDQGTGKEQSIVISHTGGLSGGEIEKMRQEAQQYAAQDQLRLRMMELQNQADSLFHTYETTLQESGELVREELKSSGKQKKDQLAIALRTPNTPVEKLQTLVEEFRQIILLIGTEVYQQGKGAASNEFANFVQGTSSGTSQMIESLETNLNPIQASSGITMTPGTMINGTVNPGGMDYVETAPVYGLDDGEEFDFDADETVYSDYEAID”, for which the protein production result is reported as “failed”. In the case of “MGLDVDWALDWLKLSAKAMAEHRVELIELDRPIGDSDHGENMDRGFQAVLQKLDETPPETPGAALKAAAMALMSKVGGAAGPLYGTAYLRAATSLGDAGDIDAEALAAALAAARDGVVARGKAELGDKTMIDAWTPAVEAAQKAAASGADPVAVLEAAAEAAETGAMATDPLVARKGRASYLGERSAGHRDPGAASTALLLRAAAAAAAGSTADKGADAV” it was “failed”; in that of “MGLEEELLRIAKKLEKMVSRKKTEGALDLLKKLNSCQMSIQLLQTTRIGVAVNGVRKHCSDKEVVSLAKVLIKNWKRLLDSPRTTKGERE”, “not failed”. Take “MGLLDHLWDDTVAGPRPENGLGKLRKHHTFSFRPSSGNDQSEAGSARSYGEDSLPEEAVKVTRSIMIIKPPGYQGSSAPASPAGSTPPLSPFSPPLSPFSANAGGKEPFRFRRRSTSDAFEKAAGGSETGPRSSPPTYGM”: the protein production entry is on record as “failed”. In the case of “MGLLSDPVRRRALARLVLRLNAPLCVLSYVAGIAWFLALVFPPLTQRTYMSENAMGSTMVEEQFAGGDRARAFARDFAAHRKKSGALPVAWLERTMRSVGLEVYTQSFSRKLPFPDETHERYMVSGTNVYGILRAPRAASTESLVLTVPCGSDSTNSQAVGLLLALAAHFRGQIYWAKDIVFLVTEHDLLGTEAWLEAYHDVNVTGMQSSPLQGRAGAIQAAVALELSSDVVTSLDVAVEGLNGQLPNLDLLNLFQTFCQKGGLLCTLQGKLQPEDWTSLDGPLQGLQTLLLMVLRQASGRPHGSHGLFLRYRVEALTLRGINSFRQYKYDLVAVGKALEGMFRKLNHLLERLHQSFFLYLLPGLSRFVSIGLYMPAVGFLLLVLGLKALELWMQLHEAGMGLEEPGGAPGPSVPLPPSQGVGLASLVAPLLISQAMGLALYVLPVLGQHVATQHFPVAEAEAVVLTLLAIYAAGLALPHNTHRVVSTQAPDRGWMALKLVALIYLALQLGCIALTNFSLGFLLATTMVPTAALAKPHGPRTLYAALLVLTSPAATLLGSLFLWRELQEAPLSLAEGWQLFLAALAQGVLEHHTYGALLFPLLSLGLYPCWLLFWNVLFWK” it was “failed”. Take “MGLMKFQLFIQPKLDVLQGNIVEYEILLRDDSAVPRFPLSELEAVLADEELYLAFSEWFSEAFLDVLKKYPNDRFAINIAPQQLFYIETLHWLDKLKSESHRITVEMTEDIFDVPGHKRHLNANDKNAFILNKIKVIHGLGYHIAIDDVSCGLNSLERVMSYLPYIIEIKFSLIHFKNIPLEDLLLFIKAWANFAQKNKLDFVVEGIETKETMTLLESHGVSIFQGYLVNKPFPV”: the protein production result is “not failed”.

As for “MGLNSKAEVAKSRKNAAEAEQKDRQTREKEEQYWREAEGPKSKAVKKREEEAEKKAETAAKKLEAKRLAEQEEKELEKALKKPDKKANRVTVPVPKVTEAELIRRREEDQVALAKKAEDSKKKQTRMAGEDEYEKMVLVTNTNRDDSLIEAHTVDEALARITVSDNLPVDRHPEKRLKASFKAYEEVELPRLKSEKPGLTHTQYKDLIWKMWKKSPDNPLNQAAAAAANE”, the protein production entry is on record as “failed”. Next, “MGLSNKFKSFFFLDEEEEYYEEEVAREPEPMQKKTKKEKPSKNRFYAVEEEDAKVVSMQGAQFSSRMVLAEPRVYAEAQELADYLKDYKTVVVNLQRISHDQATRIVDFLSGTVYALGGDIQRVGNNIFLTPDNVEVNGSISEMLDEQNFMLEHHHHHH”: “failed”.

The values are drawn from a protein production outcome set (Wang et al. 2014).
